Where “and” joins values, the source holds several entries; their conditions need not be identical. Equal values may be shown once. Read-outs that look alike come from different tables or passages of the source.
B1: AAV2 Rep68 origin binding domain (OBD) (domain or fragment, adeno-associated virus 2 (AAV2))
chain: MPGFYEIVIKVPSDLDGHLPGISDSFVNWVAEKEWELPPDSDMDLNLIEQAPLTVAEKLQRDFLTEWRRVSKAPEALFFVQFEKGESYFHMHVLVETTGVKSMVLGRFLSQIREKLIQRIYRGIEPTLPNWFAVTKTRNGAGGGNKVVDECYIPNYLLPKTQPELQWAWTNMEQYLSACLNLTERKRLVAQHLTHVSQTQEQNKENQNPN

What was measured:
[1] = biological target: AAV2 Rep68* (Rep68 C151S) (adeno-associated virus 2 (AAV2)) (UniProt P03132); experiment: cryo-EM structure
[2] = biological target: AAV2 Rep68* (Rep68 C151S) (adeno-associated virus 2 (AAV2)) (UniProt P03132); experiment: cryo-EM structure; remark: listed apart in the source
[3] = biological target: AAV2 Rep68* (Rep68 C151S) (adeno-associated virus 2 (AAV2)) (UniProt P03132); experiment: cryo-EM structure; remark: listed apart in the source
[4] = biological target: AAV2 Rep68* (Rep68 C151S) (adeno-associated virus 2 (AAV2)) (UniProt P03132); experiment: cryo-EM structure; remark: listed apart in the source
[5] = biological target: AAV2 Rep68* (Rep68 C151S) (adeno-associated virus 2 (AAV2)) (UniProt P03132); experiment: cryo-EM structure; remark: listed apart in the source
cross-linking = biological target: the molecule itself; experiment: cross-linking

| Molecule | stoichiometry N [1] | stoichiometry N [2] | stoichiometry N [3] | stoichiometry N [4] | stoichiometry N [5] | stoichiometry N (cross-linking) |
| --- | --- | --- | --- | --- | --- | --- |
| AAV2 Rep68* (Rep68 C151S) (from UniProt P03132 1-536) (enzyme) | 6 and 7 | 7 | 8 | 6 | 7 | – |
| B1 | – | – | – | – | – | 8 |

Source: PMC7736791 (Nucleic Acids Research, 2020)
